Here are results for 4 molecules from article PMC7887213 (Nature Communications, 2021).

Common to all, as to settings: both partners purified
One assay addresses T1, NPNA3 peptide (Plasmodium falciparum (synthetic CSP …)).
T1 construct: source: synthetic peptide, bought: Innopep Inc
In words: crystal structure; Fab at 10 mg/ml mixed with peptide at 1:5 molar ratio of Fab to peptide; sitting drop vapor diffusion.

The target in assay [1] is T2, NPNA6 peptide (Ac-[residues removed]-NH2) (Plasmodium falciparum (synthetic CSP …).
T2 construct: source: synthetic peptide, bought: Innopep Inc
Nature of the assay: ITC; peptide in the syringe, Fab (~10 uM) in the cell; DPBS; 25 C; single-site binding model; triplicate; apparent affinity.

In assay [2] the target is T3, NPNA4 peptide (Ac-[residues removed]-NH2) (Plasmodium falciparum (synthetic CSP …).
T3 construct: source: synthetic peptide, bought: Innopep Inc
The description is as above.

Assay [3] deals with T4, NPNA2 peptide (Ac-[residues removed]-NH2) (Plasmodium falciparum (synthetic CSP …).
T4 construct: source: synthetic peptide, bought: Innopep Inc
In words: crystal structure; Fab at 10 mg/ml mixed with peptide at 1:5 molar ratio of Fab to peptide; sitting drop vapor diffusion.

Assay [4] has as its target T4, NPNA2 peptide (Ac-[residues …). In words: ITC; peptide in the syringe, Fab (~10 uM) in the cell; DPBS; 25 C; single-site binding model; triplicate; apparent affinity. A general note: Isothermal titration calorimetry measures the heat released or taken up as one component is titrated into another.

B1: Fab399 (Fab, V domains shown)
VH: EVQLVESGGGLVQPGRSLRLSCTTSGFTFGDYAMSWFRQAPGKGLEWVGFIRSKGFGGTAEYAAFVKGRFTISRDDSRSIAYLQMTSLKPEDTAVYYCSRVGVVIATAVYWGQGTLVTVSS
VL: DILMTQTPLSLSVTPGQPASISCKSSQSLLDNDGKTYLYWYLQKPGQSPQLLIYEVSNRFSGVPERFSGSGSGTDFTLKIRRVEAEDVGVYYCMQRIDLPWTFGQGTKVEIK
notes: also called mAb399; source: ExpiCHO cells, purified (HiTrap Protein G, SEC)
As to B1, the binding result with NPNA3 peptide is listed as “binds”. The Kd in assay [1] is 94 nM; in assay [2], 5920 nM.

B2: Fab395 with elbow mutations in the heavy chain (crystallised form) (Fab, V domains shown)
VH: QEQLVESGGGVVQPGRSLRLSCAAASEFCFSCYGMHWVRQAPGKGLEWVAVIWHDGSNQHFADSVKGRFTISRDNSKNIMYLQMNSLRAEDTAVYYCASATRYDILTGAFDYWGQGTLVTVVS
VL: DIQMTQSPSTLSASVGDRVTITCRASQSISTWLAWYQQKPGKAPKLLIYKASSLESGVPSRFSGSGSGTEFTLTISSLQPDDFATYYCQQYSRYWTFGQGTKVEIK
notes: source: ExpiCHO cells, purified (HiTrap Protein G, SEC)
As to B2, the binding result in assay [3] is “binds”.

B3: Fab366 with elbow mutations in the heavy chain (crystallised form) (Fab, V domains shown)
VH: QVQLVQSGAEVKKPGASARVSCKASGYTLTDFYLHWVRQAPGQGLEWMGWLNPHSGGTNYAQKFLGRVSMTRDTSISTAYMELNKLISDDTAVYFCVRSDQEALRGAFDIWGQGTMVFVVS
VL: DIQMTQSPSSLSASVGDTVTITCRASQSINDYLNWYQQKPGKAPKLLIYATSSLHSGVPSRFSGSGFGTDFTLTISSLQPEDSATYLCQQSHSLWTFGQGTKVEVK
notes: as for B2
Regarding B3, the binding result with NPNA3 peptide is recorded as “binds”.

B4: Fab356 (Fab, V domains shown)
VH: VQLVESGGGVVQPGRSLRLSCAASGFTFRNFGMHWVRQTPGKGLEWVAVIWHDGSNKFYADSVEGRFTISRDNSKNMIYLQMNSLRVEDTAIYYCARDSLFYDHDNSGYYGYWGQGTLVTVSS
VL: QIVMTQSPATVSVSPGERATLSCRASRSVTSKLAWYQQKPGQAPRLLIYGASTRATGIPARFSGSGSGTEFTLTISSLQSEDFAVYFCQQYNNGFTFGPGTKVDFK
notes: also called mAb356; source: ExpiCHO cells, purified (HiTrap Protein G, SEC)
As to B4, the Kd in assay [1] came to 30 nM; in assay [2] it was 82 nM; in assay [4], 8270 nM.
